Data as given in the Immune Epitope Database (IEDB).
One block for each sequence: values may come before it.

How the values were obtained:
HLA-B*27:05 [1] = experiment: IEDB peptide-MHC binding, purified MHC/competitive/fluorescence; filed as Kd, often an IC50 or EC50 that approximates it; ≥ and ≤ were set here for values at or beyond the usual limits of such assays; conditions: source organism: Mycobacterium tuberculosis variant bovis BCG str. Pasteur 1173P2
HLA-A*02:01 [2] = experiment: IEDB peptide-MHC binding, purified MHC/direct/fluorescence; filed as Kd, often an IC50 or EC50 that approximates it; ≥ and ≤ were set here for values at or beyond the usual limits of such assays; conditions: source organism: Brucella abortus 2308
HLA-A*01:01 = experiment: as above
HLA-B*15:01 [3] = experiment: as above
HLA-A*69:01 = experiment: as above
HLA-B*73:01 [4] = experiment: as above
HLA-B*44:02 = experiment: as above; conditions: source organism: Brucella abortus 2308
HLA-A*11:01 = experiment: as above
HLA-B*40:01 = experiment: as above
HLA-B*58:01 = experiment: as above
HLA-B*27:05 [5] = experiment: as above
HLA-B*07:02 [6] = experiment: as above
HLA-A*26:01 = experiment: as above
HLA-A*03:01 [7] = experiment: as above
HLA-B*08:01 [8] = experiment: as above
HLA-A*31:01 [9] = experiment: as above
HLA-A*02:01 [10] = experiment: IEDB peptide-MHC binding, purified MHC/competitive/fluorescence; filed as Kd, often an IC50 or EC50 that approximates it; ≥ and ≤ were set here for values at or beyond the usual limits of such assays
HLA-B*15:09 = experiment: as above; conditions: source organism: Ectromelia virus
HLA-B*15:01 [11] = experiment: as above
HLA-B*08:01 [12] = experiment: as above; conditions: source organism: Ectromelia virus
HLA-B*57:01 = experiment: IEDB peptide-MHC binding, purified MHC/direct/fluorescence; filed as Kd, often an IC50 or EC50 that approximates it; ≥ and ≤ were set here for values at or beyond the usual limits of such assays
HLA-B*38:01 = experiment: as above; conditions: source organism: Variola virus
HLA-B*15:17 [13] = experiment: as above; conditions: source organism: Camelpox virus CMS
HLA-B*51:01 = experiment: as above; conditions: source organism: Camelpox virus CMS
HLA-B*18:01 = experiment: as above
HLA-B*48:01 [14] = experiment: as above
HLA-A*03:01 [15] = experiment: IEDB peptide-MHC binding, purified MHC/competitive/fluorescence; filed as Kd, often an IC50 or EC50 that approximates it; ≥ and ≤ were set here for values at or beyond the usual limits of such assays; conditions: source organism: Escherichia coli
HLA-A*31:01 [16] = experiment: as above; conditions: source organism: Escherichia coli
HLA-C*06:02 [17] = experiment: IEDB peptide-MHC binding, purified MHC/direct/fluorescence; filed as Kd, often an IC50 or EC50 that approximates it; ≥ and ≤ were set here for values at or beyond the usual limits of such assays; conditions: source organism: Escherichia coli
HLA-B*73:01 [18] = experiment: IEDB peptide-MHC binding, purified MHC/competitive/fluorescence; filed as Kd, often an IC50 or EC50 that approximates it; ≥ and ≤ were set here for values at or beyond the usual limits of such assays; conditions: source organism: Mus musculus
HLA-C*06:02 [19] = experiment: as above; conditions: source organism: Mus musculus
HLA-B*15:42 = experiment: as above; conditions: source organism: Mus musculus
HLA-B*45:06 = experiment: as above; conditions: source organism: Mus musculus
HLA-B*27:20 = experiment: as above; conditions: source organism: Mus musculus
HLA-C*07:02 = experiment: IEDB peptide-MHC binding, purified MHC/direct/fluorescence; filed as Kd, often an IC50 or EC50 that approximates it; ≥ and ≤ were set here for values at or beyond the usual limits of such assays; conditions: source organism: Mus musculus
HLA-B*15:17 [20] = experiment: IEDB peptide-MHC binding, purified MHC/competitive/fluorescence; filed as Kd, often an IC50 or EC50 that approximates it; ≥ and ≤ were set here for values at or beyond the usual limits of such assays; conditions: source organism: Orthomarburgvirus marburgense
HLA-A*30:01 = experiment: as above; conditions: source organism: Orthomarburgvirus marburgense
HLA-A*68:02 = experiment: as above; conditions: source organism: Orthomarburgvirus marburgense
HLA-B*07:02 [21] = experiment: as above; conditions: source organism: Orthomarburgvirus marburgense
HLA-B*48:01 [22] = experiment: as above; conditions: source organism: Orthomarburgvirus marburgense
HLA-A*26:03 = experiment: IEDB peptide-MHC binding, purified MHC/direct/fluorescence; filed as Kd, often an IC50 or EC50 that approximates it; ≥ and ≤ were set here for values at or beyond the usual limits of such assays; conditions: source organism: Ravn virus - Ravn, Kenya, 1987
HLA-B*08:02 = experiment: as above; conditions: source organism: Ravn virus - Ravn, Kenya, 1987
HLA-B*39:01 = experiment: as above; conditions: source organism: Marburg virus - Musoke, Kenya, 1980
HLA-B*46:01 = experiment: as above; conditions: source organism: Marburg virus - Musoke, Kenya, 1980
HLA-C*04:01 = experiment: as above; conditions: source organism: Leishmania major strain Friedlin
[23] = source organism: Brucella abortus 2308
[24] = source organism: Brucella melitensis
[25] = source organism: Ectromelia virus
[26] = source organism: Camelpox virus CMS
[27] = source organism: Toxoplasma gondii
[28] = source organism: Marburg virus - Musoke, Kenya, 1980

Sequence: GRAVSSATF
- Kd (HLA-B*27:05 [1]): 0.141 µM

Sequence: KRASGDPYF
- Kd (HLA-A*02:01 [2]): ≥ 20 µM
- Kd (HLA-A*01:01; [23]): ≥ 20 µM
- Kd (HLA-B*15:01 [3]; [23]): ≥ 20 µM
- Kd (HLA-A*69:01; [23]): ≥ 20 µM
- Kd (HLA-B*73:01 [4]; source organism: Brucella suis ATCC 23445): ≥ 20 µM
- Kd (HLA-B*44:02): ≥ 20 µM
- Kd (HLA-A*11:01; [23]): ≥ 20 µM
- Kd (HLA-B*40:01; [23]): ≥ 20 µM
- Kd (HLA-B*58:01; [24]): 5.93 µM
- Kd (HLA-B*27:05 [5]; [24]): 2.79 µM
- Kd (HLA-B*07:02 [6]; [23]): ≥ 20 µM
- Kd (HLA-A*26:01; [23]): ≥ 20 µM
- Kd (HLA-A*03:01 [7]; [23]): ≥ 20 µM
- Kd (HLA-B*08:01 [8]; [23]): ≥ 20 µM
- Kd (HLA-A*31:01 [9]; [23]): ≥ 20 µM

Sequence: VIARTHTAL
- Kd (HLA-A*02:01 [10]; [25]): ≥ 20 µM
- Kd (HLA-B*15:09): ≥ 20 µM
- Kd (HLA-B*15:01 [11]; [25]): 0.785 µM
- Kd (HLA-B*08:01 [12]): 0.0518 µM
- Kd (HLA-B*57:01; [26]): ≥ 20 µM
- Kd (HLA-B*38:01): ≥ 20 µM
- Kd (HLA-A*01:01; [26]): ≥ 20 µM
- Kd (HLA-A*69:01; [26]): ≥ 20 µM
- Kd (HLA-B*15:17 [13]): ≥ 20 µM
- Kd (HLA-A*11:01; [26]): ≥ 20 µM
- Kd (HLA-B*40:01; [26]): ≥ 20 µM
- Kd (HLA-B*58:01; [26]): ≥ 20 µM
- Kd (HLA-B*27:05 [5]; [26]): ≥ 20 µM
- Kd (HLA-B*51:01): ≥ 20 µM
- Kd (HLA-B*07:02 [6]; [26]): 0.0583 µM
- Kd (HLA-B*18:01; [26]): ≥ 20 µM
- Kd (HLA-A*26:01; source organism: Variola virus): ≥ 20 µM
- Kd (HLA-A*03:01 [7]; [26]): ≥ 20 µM
- Kd (HLA-B*48:01 [14]; [26]): ≥ 20 µM
- Kd (HLA-A*31:01 [9]; [26]): ≥ 20 µM

Sequence: WRMVVRASF
- Kd (HLA-B*73:01 [4]; [27]): 1.34 µM
- Kd (HLA-B*27:05 [5]; [27]): 0.008 µM
- Kd (HLA-B*48:01 [14]; [27]): ≥ 20 µM

- Kd (HLA-B*15:01 [11]; source organism: Escherichia coli): ≥ 20 µM
- Kd (HLA-A*03:01 [15]): ≥ 20 µM
- Kd (HLA-A*31:01 [16]): 0.0021 µM
- Kd (HLA-C*06:02 [17]): ≥ 20 µM
Sequence: RYWRLRYRI

- Kd (HLA-B*73:01 [18]): 0.689 µM
- Kd (HLA-C*06:02 [19]): 0.0038 µM
- Kd (HLA-B*15:42): ≥ 5 µM
- Kd (HLA-B*45:06): ≥ 5 µM
- Kd (HLA-B*27:20): 0.0002 µM
- Kd (HLA-C*07:02): 0.03 µM
Sequence: FRMLAWHVL

Sequence: YHLGGIEGL
- Kd (HLA-A*02:01 [10]; source organism: Orthomarburgvirus marburgense): 0.007 µM
- Kd (HLA-B*15:17 [20]): ≥ 20 µM
- Kd (HLA-A*30:01): ≥ 20 µM
- Kd (HLA-A*68:02): 1.44 µM
- Kd (HLA-B*07:02 [21]): ≥ 20 µM
- Kd (HLA-B*48:01 [22]): 0.155 µM
- Kd (HLA-B*57:01; [28]): ≥ 20 µM
- Kd (HLA-A*26:03): ≥ 20 µM
- Kd (HLA-A*01:01; [28]): ≥ 20 µM
- Kd (HLA-B*15:01 [3]; [28]): ≥ 20 µM
- Kd (HLA-A*69:01; [28]): 2.41 µM
- Kd (HLA-B*08:02): ≥ 20 µM
- Kd (HLA-B*40:01; [28]): ≥ 20 µM
- Kd (HLA-B*58:01; [28]): ≥ 20 µM
- Kd (HLA-B*27:05 [5]; [28]): ≥ 20 µM
- Kd (HLA-B*39:01): 0.0403 µM
- Kd (HLA-B*18:01; [28]): ≥ 20 µM
- Kd (HLA-B*46:01): ≥ 20 µM
- Kd (HLA-B*08:01 [8]; source organism: Ravn virus - Ravn, Kenya, 1987): ≥ 20 µM

Sequence: TRDPNLAYI
- Kd (HLA-C*04:01): ≥ 20 µM
